B1: glycerol-3-phosphate dehydrogenase Saci_1118, N-terminally His-tagged (enzyme, Sulfolobus acidocaldarius DSM 639, UniProt Q4J9Q8 1-428, looked up)
chain: MKQNSSVIVIGGGATGLFTALDLSLRGINVTLVERGDIASGTSGKFHGLLHSGARYAVNDPESAKECKQENEVLSKIAPEFVRDTGGVFVGITEDDVNYSQRFLSALNSLGITNKVMDVEELIRREPFINKKSKIAIWVPDKVVYGYDLLATVALTASLNGAKILTYNEVKRVLREGNSVRRVEVKDNISGETKILNGDIIVNTAGPWAFRVIEMAGLGEIPLLPTAGIMVVMKEKLNSMVINRLRPPSDGDIIVPYGDSSIIGTTATIIPDPDNFEISDEDINMLIEEGAYMIPRLKEVKPERAYASVRPLIKNAEDGRGATRDFMIIDHEKVDSLDGLISVIGGKFTTSRLAGEKVSDMVSEKLGIREKSKTATIKLMSELDEKLLEKKRVPKVLVKMIRERKGSLDEDRYSTAMYILLSLLARGE
B2: glycerol kinase Saci_1117 (enzyme, Sulfolobus acidocaldarius DSM 639, UniProt Q4J9R1 1-498, looked up)
chain: MSKYILAVDEGTTSARALVFDEDLNVISIAQTELTQYFPRPGYVEQNPEEIFEKQVSMIKKAVEKAKIEISQVSAIGIANQRETTIMWDSRSGRPVYNAVVWQDRRTSDITDWLKSNYLNLFKSKTGLIPDPYFSASKIKWILDNVPGVREKAERGEIKFGTVDTYLIWKLTNGKVHVTDYSNASRTMLFNIKKLEWDRDILEILEIPEAILPEVRSSSEVYGYAEPVGNIPISGDAGDQQAALFGQLGFSKGDVKCTYGTGSFILMNSGEEIYDSKDLLTTIAWKIGKDVKYALEGSIFTTGAAVQWVRDGLGLVSSSDEIESLASSVVDNGGVYFVPAFSGLGSPYWDPYARGLIIGISRGTSRGHIARAVLESIAYQVRDVIEVIKKDVGKEFVNVLKVDGGVSKNNLLMQFQADILGIRIVRPRVIETTSMGASMLAGLAVDYWSSLEELKSKWAVDREFIPSLQEDRRERLYKGWKEAVRRTIGWAREVETME
B3: glycerol kinase Saci_2033 (enzyme, Sulfolobus acidocaldarius DSM 639, UniProt Q4J7A3 1-497, looked up)
chain: MAEKYVIAIDEGTTSARAIVFDKELNILGIGQNEFTQYYPQPGYVEHSPEEIWQAQLLAINKALEKAKIDRNNILSIGITNQRETTVMWDTRTGKPIYNAIVWQDRRTAPITDYLKANYLRLIKDRTGLVPDPYFSASKIKWILDNIPNAREKAEKGEIKFGTIDTYLIWKLTNGKAHVTDYSNASRTMLFNIRKLEWDREILEILNIPEAILPDVKPSSEIYGYAEILNSSIPISGDAGDQQAALFGQIAFNQGDVKCTYGTGSFILLNTGSNLVSSNDLLTTIAWGVGKGITYALEGSIFITGAAVQWFRDGLRAIDVSDEIEPLAGSVPDNGGVYFVPAFTGLGAPYWDPYARGLIIGITRGTTKAHIARAILESMAYQTMDVLGIMQRDSGIKIDALKVDGGASKNDLLMQFQADILKMKVVRPKIMETTSMGVAMLAGLSVGYWNSMDELKQKWKIDQVFEPKMDDEYREKLYSGWKEAVRRALGWAKTIGG
B4: glycerol-3-phosphate dehydrogenase Saci_2032, N-terminally His-tagged (enzyme, Sulfolobus acidocaldarius DSM 639, UniProt Q4J7A2 1-431, looked up)
chain: MEIKTSVLVIGGGANGLFTALDLALRGIDVTLVERRDIGSGTSGRFHGLLHSGARYAVTDPESAKECIQENNIISKIAPHAIRDTGGLFLGITKEDLEFLDKFLSSLKKLGIEHKIVDNNQVLQEEPYVNKDLKIAIWVPDKVVYGYDLLSSIAVTGSLNKARIMTYNEVTEFIRDGNSIKGVKVFDKITNQMNLIKSDIIINTSGPWAFKIITMAGLEEIPILPTAGIMAVFGKKVNNAVLNRLRPPSDGDIIVPYQDTSILGTTATIIEDPDNFTISDEDVKMLIKEGSQLVPELSKTRVIRTYASVRPLMRTSEDGRKASRDFTILDHEREDGVSGLISIIGGKFTTSRLVGEKVGDLVSEKLGVRAKSKTKETKLISPSEIDFEKYLEKIGISKIFLKSVMERRGSLDEERYKTVLYLLLSLIARGR

The data set deals with the molecule itself. The data set is described as follows: SEC. On the technique in general: Size exclusion chromatography separates by hydrodynamic size, large species first.
For orientation: stoichiometry N means a count of units in the complex or per binding partner. In the case of B1, the “stoichiometry N” value worked out at 2.
As for B2, the “stoichiometry N” value was 2.
For the protein B3, the “stoichiometry N” value was determined as 2.
Regarding B4, the “stoichiometry N” value came out at 2.

The values are drawn from doi:10.1101/2024.02.29.582781 (bioRxiv, 2024).
